We go through 17 sequences from the DeepSol protein solubility set.

The series can be described thus: soluble on expression in E. coli; label from the status in PepcDB or PDB records.
For the sequence “MPIVNQSSLVPYSAEQMYQLVNDYEKYPQFLSGCIGAKTISRGNNELEAELQIQKLGISQSFSTHNKMLPNERIEMKLVNGPFRQLQGAWNFQPFDEQSCKISLYLEFEFSNPVVGMVFGKIFNELTLKMVNAFKQRAKEVYGVLEHHHHHH”, the “soluble on expression in E. coli” value is listed as “soluble”.

“MSLERIDIASVKGGVGKSFIAYFLSKTLAASHKILLIDKDLTSTLSRVYNIKGNLLSYLTVGQSSLAYFKEVDSGLTVVNVGCSRKIKNVEPKKIADIYSGFSDHDLMIVDNPSIPSDVCLDTELQAYYTYLNEKRLDYNLILILPPNQLLLDESLAFMQLFKDYIKNELSISLGNDLVNFDVISSVINMYNPRERIDISKIKDLTSKIVKIPFKKEAIYTPFNQLNTPMEISELAKYVLEYLESREGHHHHHH”: the “soluble on expression in E. coli” value is listed as “soluble”. Take “MSLDIKQLKFLIALDQTRHFGQAAALCHITQPTLSMRLRNLEDELDLVLVKRGQRFEGFTEAGERILAWARTLLAAHDGLQAEAASCRGQVVGSLRLGTVPLASFNPMHLLLPLREKYPELHFQLSSLSSEQVIDGLSRNQLDLGICYLDQVNTSFFEVIELGTTTMGLLHDTRHFQFTSDRLRWDELGDIPLGLLSKGMHYRQSLDLSFRSRGLEPNAVLESDSSFQLIQAINTGICCAIMPLDCGLEDLSEHLRIVPVADAAIHSPVGLLLRRSEPRSAIAEQCFAEARGLFQASEGHHHHHH”: the “soluble on expression in E. coli” value is “soluble”. The same measure for “MCGQKFELKIDNVRFVGHPTLLQHALGQISKTDPSPKREAPTMILFNVVFALRANADPSVINCLHNLSRRIATVLQHEERRCQYLTREAKLILALQDEVSAMADGNEGPQSPFHHILPKCKLARDLKEAYDR”: “not soluble”; for “MIHTEPSAQPSTMDTAAFLKHIESAFRRIFSDGIDLMRYLPEDKWLALKQAGLLLPFLDKKYGGRKGSQFEIQEVLRIAGHYGVPVTLRTGIEGALVLQPLQEFGDEAQVAQGLEMIFKGEGGGLGVTEPETSGAAIAREMQSYYEYIDGQTIYVNAAKYWQGNSQSDFLLVAAKERKNGKLAKVIDLLLVPKTYIRCETLASEGLRAVRYAVNRIDAEMPATAVMKLSQSDAAGLRAFQNIFIRSRLQLIGMTHGIMEYILENLERYVRNDIKFVDYERREIRRRHQVSEILYRYVCHSVSPVAPVAHQLMEANIVKTLATEYTYAAAQMLQKLLGAKGFERGHTAGNIAIDIRPFTIFEGPNDMLYAEIYDQFVRATAEEKEAGMKLDKNQTLLDRLQTDARFAAVARDYTLPEDIRSFLQEHTLTDACALQKVFIGKIIARLFVFVQAKHEDTAAFLLNDIRKDILDCRYCG”: “not soluble”; for “MVPSRNGEGTELRGHMEIEKELALEKKTYGSHIKILILGGPLSGKSTIFKQMQIIHVDGFKTDQELIQYRGLIDNNIRDIYLQLIAGSRVVGIPLDPIEHITYEIDEIYAPMSDAFSVRTISELLEPLTEFWNSKQIQEIYKRRCEFELLDSTKYYLENLTRIADPTYLPNQEDIVHSRKATMSINSIVFEYTGVSLLMIDVGGQRSERKKWLHLFDDAKVVLFVIDLTGYAKRSEESRMELSRFPKFFRDVGSNAYDMKVALKIFNEVAAASALANAVFLLFFNKVDLFKEILSQVNLQPCFSKFDGENTYEETSKYICEKFIRAASSKKSVFPHFTTATNTENVKLVFRACMESVFKANAKATGLS”: “not soluble”. The same measure for “GMSAPVTLINPFKVPADKLEAAIEYWEAHRDFMAQQPGYLSTQLHQSIDEGATYQLINVAIWQSEADFYQAAQKMRQALGHVQVEGLCGNPALYRVIRT”: “soluble”; for “MSITLITAAPGAGKTIFAVWNIIKPAVEADRVVYTAGIPELKLPAISLSYSQVKRWADRELVEVENPSGIPIPDDEKPSRLQNITEGALIVIDEVQYLWPASGSREPGEDIKYLTKHRHHGLEFVLITQAPQLIHKNVLAVVDKHIHMLSDWHGRKRYEWPEYCATVRATSSKLKAVSQRYELPKEAYGLYRSASMHI”: “not soluble”. Regarding “MRIIMPVEFSRIVRDVERLIAVEKYSLQGVVDGDKLLVVGFSEGSVNAYLYDGGETVKLNREPINSVLDPHYGVGRVILVRDVSKGAEQHALFKVNTSRPGEEQRLEAVKPMRILSGVDTGEAVVFTGATEDRVALYALDGGGLRELARLPGFGFVSDIRGDLIAGLGFFGGGRVSLFTSNLSSGGLRVFDSGEGSFSSASISPGMKVTAGLETAREARLVTVDPRDGSVEDLELPSKDFSSYRPTAITWLGYLPDGRLAVVARREGRSAVFIDGERVEAPQGNHGRVVLWRGKLVTSHTSLSTPPRIVSLPSGEPLLEGGLPEDLRRSIAGSRLVWVESFDGSRVPTYVLESGRAPTPGPTVVLVAGGPFAEDSDSWDTFAASLAAAGFHVVMPNYRGSTGYGEEWRLKIIGDPCGGELEDVSAAARWARESGLASELYIMGYSYGGYMTLCALTMKPGLFKAGVAGASVVDWEEMYELSDAAFRNFIEQLTGGSREIMRSRSPINHVDRIKEPLALIHPQNDSRTPLKPLLRLMGELLARGKTFEAHIIPDAGHAINTMEDAVKILLPAVFFLATQRERR”, the “soluble on expression in E. coli” value is “soluble”.

For the sequence “MGDGAVKQGFLYLQQQQTFGKKWRRFGASLYGGSDCALARLELQEGPEKPRRCEAARKVIRLSDCLRVAEAGGEASSPRDTSAFFLETKERLYLLAAPAAERGDWVQAICLLAF”, the “soluble on expression in E. coli” value is “soluble”. Then “MATKKDVHDLFLNHVNSNAVKTRKMMGEYIIYYDSVVIGGLYDNRLLVKATKSVRHQLQDNTLVSPYPGAKEMILIPDITEAINLTNLFELIKNDLKN”, with “not soluble”. For the sequence “KITGLLDGDRVIVFDKNGISKLSARHYGNVEGNFLSLSLVEALYLINLGWLEVKYKDNKPLSFEELYEYARNVEERLCLKYLVYKDLRTRGYIVKTGLKYGADFRLYERGANIDKEHSVYLVKVFPEDSSFLLSELTGFVRVAHSVRKKLLIAIVDADGDIVYYNMTYVKP”, the “soluble on expression in E. coli” value is “soluble”. For “MSLRVYVTGNITVDETWSIPDIPKKGASIHGVKVSQDIGGKGANQAIILSRCGIETRLIAATGNDSNGAWIRQQIKNEPLMLLPDGHFNQHSDTSIILNSADGDNAIITTTAAADTFSLDEMIPHMADAVAGDILLQQGNFSLDKTRALFQYARSRGMTTVFNPSPVNPDFCHLWPLIDIAVVNESEAELLQPYGVKTLVITQGAAGAWLVQEGQRQFCPAVPAEALDTTGAGDTFLAVMLASALLRGVAPDALALAHASRAAAITVSRRGTLSAFPGSRELAALLTTDGAEGHHHHHH”, the “soluble on expression in E. coli” value is on record as “soluble”. On to “MADGINSTVTVERSDGPRHRGTAAGIGGLDLDLEDVTHKELIEARRTGDVGLVHSWELVTAVDGPGTRMTMFMSGCPLRCLYCHNPDTMGMKEGTVERVESIVKKIKRYRNVFKASGGGLTISGGEPLFQIAFTRRVLKEVHDAGIHTTIDTSGYLGARLTDEDLENIDLVLLDVKSGDEETYHRVSGGRELQPTIDFGNRLNAIGKPVWIRFVLVPGVSDAPENINNVADIVAQWKDNVERVEVLPFHNMGADKWHELGLNYELEDTKPPTQESVEFAKETFRSRGLTVY”, for which the “soluble on expression in E. coli” value was “not soluble”. Turning to “TLANNRVRLLVNGEASFEAMFKAISAARQVILVQFFIVRDDALGQRLQQLLLERAANGVEVFFLYDAIGSHALPHRYVERLRQGGVQMHGFSTGSGMLNRFQVNFRNHRKVVVVDGECGFVGGHNVGVEYLGEKPPLAPWRDTHMELRGPAVACLQESFAEDWYWATHSLPPLILPPQYDSEGALCQVVASGPA”, the “soluble on expression in E. coli” value is “not soluble”. “GPGSMGRERMASSWRMPVYRSWQCSTPWSVSLPHPGPALPTLLVRHVCTPVSVCLYTNLSYCSLHAHNSIERLPPPLHAFVPTTHTHTHKHTYICIYACHSPLLRVSTWTKAFCLILRSRTLSTMSTKYLAAYALASLSKASPSQADVEAICKAVHIDVDQATLAFVMESVTGRDVATLIAEGAAKMSAMPAASSGAAAGVTASAAGDAAPAAAAAKKDEPEEEADDDMGFGLFD”: the “soluble on expression in E. coli” value was “not soluble”. In the case of “MGSDKIHHHHHHMKKAMVIINPTSGGEKALDYKEKLENKAKEYFEYVETKITEKALDATHFAEEASREQYDAVVVFGGDGTVNEVISGIDERDYIPKLGIIPGGTGNLITKLLEINQDIDGAIDELDFDLTNKIDIGKANDNYFGYIFSIGSLPEAIHNVEIEDKTKFGILTYAVNTMKSVMTDQVFNIKVETENGNYVGEASHVLVLLTNYFADKKIFEENKDGYANILILKDASIFSKLSVIPDLLKGDVVANDNIEYIKARNIKISSDSELESDVDGDKSDNLPVEIKVLAQRVEVFSKPKED”, the “soluble on expression in E. coli” value is given as “not soluble”.
